This series in a line: self-splicing fitness, log relative to wild type (ln ratio); higher = more splicing; Tetrahymena group I intron in knt gene, E. coli kanamycin selection, DiMSum; sequences stand for … in CUCUCU…GGAGGGAAAAGUUAUCAGGCAUGCACCUGGUAGCUAGUCUUUAAACCAAUAGAUUGCAUCGGUUUAAAAGGCAAGACCGUCAAAUUGCGGGAAAGGGGUCAACAGCCGUUCAGUACCAAGUCUCAGGGGAAACUUUGAGAUGGCCUUGCAAAGGGUAUGGUAAUAAGCUGACGGACAUGGUCCUAACCACGCAGCCAAGUCCUAAGUCAACAGAUCUUCUGUUGAUAUGGAUGCAGUUCACAGACUAAAUGUCGGUCGGGGAAGAUGUAUUCUUCUCAUAAGAUAUAGUCGGACCUCUCCUUAAUGGGAGCUAGCGGAUGAAGUGAUGCAACACUGGAGCCGCUGGGAACUAAUUUGUAUGCGAAAGUAUAUUGAUUAGUUUUGGAGUACUCGUGGUCG
In short, it runs like this: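 Colonies from six replicate transformations of E. coli BL21(DE3) were pooled and amplicon-sequenced on an Illumina HiSeq 2500. The library placed an intron with all eight P1ex-region nucleotides randomised inside the knt kanamycin-resistance gene on pET-22b(+), and cells grew overnight at 37°C or 30°C on LB agar with or without 25 μg/mL kanamycin (plus 100 μg/mL carbenicillin, 50 μM IPTG, 0.2% rhamnose). Fitness is the DiMSum error-weighted combination of wild-type-normalised replicate fold changes, kanamycin versus none.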

± gives the uncertainty stated by the source.

For the sequence CCAUAGCAAUAUUACGUACG, the “self-splicing fitness (ln)” value (30 °C) was -0.658 ± 0.07 and the “self-splicing fitness (ln)” value (37 °C) amounted to 0.351 ± 0.086.

Turning to CCAUAGCAAUAUUACGUAGU, the “self-splicing fitness (ln)” value (30 °C) is -3.93 ± 0.24 and the “self-splicing fitness (ln)” value (37 °C) is -2.14 ± 0.23.

In the case of CCAUAGCAAUAUUACGUAUC, the “self-splicing fitness (ln)” value (30 °C) was -2.32 ± 0.15 and the “self-splicing fitness (ln)” value (37 °C) is -2.01 ± 0.31.

On to CCAUAGCAAUAUUACGUCAG, for which the “self-splicing fitness (ln)” value is -1.74 ± 0.13 (30 °C) and -1.61 ± 0.15 (37 °C).

On to CCAUAGCAAUAUUACGUCGG, for which the “self-splicing fitness (ln)” value (30 °C) is -3.15 ± 0.19 and the “self-splicing fitness (ln)” value (37 °C) is -2.02 ± 0.29.

As to CCAUAGCAAUAUUACGUGGG, the “self-splicing fitness (ln)” value reads like this: (30 °C) -4.18 ± 0.16; (37 °C) -2.96 ± 0.15.

On to CCAUAGCAAUAUUACGUUCC, for which the “self-splicing fitness (ln)” value was -3.61 ± 0.39 (30 °C) and -2.52 ± 0.44 (37 °C).

For the sequence CCCAAGCAAUAUUACGAAGU, the “self-splicing fitness (ln)” value runs as follows: (30 °C) -2.98 ± 0.15; (37 °C) -2.19 ± 0.18.

For the sequence CCCAAGCAAUAUUACGACAC, the “self-splicing fitness (ln)” value (30 °C) was -2.66 ± 0.2 and the “self-splicing fitness (ln)” value (37 °C) is -3.25 ± 0.43.

In the case of CCCAAGCAAUAUUACGACGA, the “self-splicing fitness (ln)” value was -2.93 ± 0.17 (30 °C) and -1.49 ± 0.14 (37 °C).

For the sequence CCCAAGCAAUAUUACGACGC, the “self-splicing fitness (ln)” value was -2.8 ± 0.22 (30 °C) and -0.545 ± 0.23 (37 °C).

Turning to CCCAAGCAAUAUUACGACGG, the “self-splicing fitness (ln)” value (30 °C) was -3.7 ± 0.21 and the “self-splicing fitness (ln)” value (37 °C) was -1.61 ± 0.16.

Take CCCAAGCAAUAUUACGAGAC: the “self-splicing fitness (ln)” value reads like this: (30 °C) -3.64 ± 0.21; (37 °C) -1.4 ± 0.17.

As to CCCAAGCAAUAUUACGAUGA, the “self-splicing fitness (ln)” value (30 °C) was -1.7 ± 0.19 and the “self-splicing fitness (ln)” value (37 °C) is -2.69 ± 0.24.

With CCCAAGCAAUAUUACGCAAA, the “self-splicing fitness (ln)” value by setting is: (30 °C) -3.35 ± 0.13; (37 °C) -2.71 ± 0.14.

Consider CCCAAGCAAUAUUACGCCCC, for which the “self-splicing fitness (ln)” value (37 °C) is -2.52 ± 0.48.

In the case of CCCAAGCAAUAUUACGCUCA, the “self-splicing fitness (ln)” value reads like this: (30 °C) -3.73 ± 0.27; (37 °C) -3.23 ± 0.25.

In the case of CCCAAGCAAUAUUACGCUUU, the “self-splicing fitness (ln)” value (30 °C) is -3.91 ± 0.2 and the “self-splicing fitness (ln)” value (37 °C) was -1.85 ± 0.17.

Consider CCCAAGCAAUAUUACGGAAG, for which the “self-splicing fitness (ln)” value was -2.89 ± 0.16 (30 °C) and -1.48 ± 0.15 (37 °C).

With CCCAAGCAAUAUUACGGACU, the “self-splicing fitness (ln)” value is, setting by setting: (30 °C) -3.92 ± 0.26; (37 °C) -2.6 ± 0.18.

With CCCAAGCAAUAUUACGGCCU, the “self-splicing fitness (ln)” value reads like this: (30 °C) -3.6 ± 0.35; (37 °C) -3.09 ± 0.37.

In the case of CCCAAGCAAUAUUACGGCGC, the “self-splicing fitness (ln)” value (37 °C) was -2.73 ± 0.25.

On to CCCAAGCAAUAUUACGGCGU, for which the “self-splicing fitness (ln)” value is, setting by setting: (30 °C) -3.85 ± 0.19; (37 °C) -2.4 ± 0.13.

As for CCCAAGCAAUAUUACGGCUA, the “self-splicing fitness (ln)” value is, setting by setting: (30 °C) -4.01 ± 0.42; (37 °C) -3.19 ± 0.32.

Turning to CCCAAGCAAUAUUACGGCUU, the “self-splicing fitness (ln)” value by setting is: (30 °C) -4.22 ± 0.22; (37 °C) -3.15 ± 0.17.

Regarding CCCAAGCAAUAUUACGGGCC, the “self-splicing fitness (ln)” value was -3.98 ± 0.22 (30 °C) and -2.08 ± 0.19 (37 °C).

For CCCAAGCAAUAUUACGGGUC, the “self-splicing fitness (ln)” value was -3.19 ± 0.13 (30 °C) and -3.14 ± 0.19 (37 °C).

CCCAAGCAAUAUUACGGUAG: the “self-splicing fitness (ln)” value runs as follows: (30 °C) -2.45 ± 0.086; (37 °C) -1.77 ± 0.087.

As for CCCAAGCAAUAUUACGGUCC, the “self-splicing fitness (ln)” value by setting is: (30 °C) -2.66 ± 0.15; (37 °C) -2.65 ± 0.21.

As for CCCAAGCAAUAUUACGUAUC, the “self-splicing fitness (ln)” value (30 °C) is -4.03 ± 0.14 and the “self-splicing fitness (ln)” value (37 °C) was -2.52 ± 0.14.

Take CCCAAGCAAUAUUACGUUCG: the “self-splicing fitness (ln)” value runs as follows: (30 °C) -2.11 ± 0.14; (37 °C) -2.49 ± 0.2.

Take CCCCAGCAAUAUUACGAACU: the “self-splicing fitness (ln)” value (30 °C) is -5.09 ± 0.45 and the “self-splicing fitness (ln)” value (37 °C) was -2.29 ± 0.2.

For CCCCAGCAAUAUUACGAAGC, the “self-splicing fitness (ln)” value (30 °C) is -4.34 ± 0.31 and the “self-splicing fitness (ln)” value (37 °C) was -3.28 ± 0.3.

Consider CCCCAGCAAUAUUACGAAUA, for which the “self-splicing fitness (ln)” value (37 °C) was -1.41 ± 0.21.

The values above are taken from the supplement of paper PMC7877785.
